These results are taken from patent US20180118799A1 (NATIONAL INSTITUTE OF ADVANCED INDUSTRIAL SCIENCE AND …, published 2018).

In test [1] the target is T1, Fc-fusion G-CSF receptor.
T1 construct: also called granulocyte colony-stimulating factor receptor
T1 sequence (Q99062 whole entry, species assumed, looked up): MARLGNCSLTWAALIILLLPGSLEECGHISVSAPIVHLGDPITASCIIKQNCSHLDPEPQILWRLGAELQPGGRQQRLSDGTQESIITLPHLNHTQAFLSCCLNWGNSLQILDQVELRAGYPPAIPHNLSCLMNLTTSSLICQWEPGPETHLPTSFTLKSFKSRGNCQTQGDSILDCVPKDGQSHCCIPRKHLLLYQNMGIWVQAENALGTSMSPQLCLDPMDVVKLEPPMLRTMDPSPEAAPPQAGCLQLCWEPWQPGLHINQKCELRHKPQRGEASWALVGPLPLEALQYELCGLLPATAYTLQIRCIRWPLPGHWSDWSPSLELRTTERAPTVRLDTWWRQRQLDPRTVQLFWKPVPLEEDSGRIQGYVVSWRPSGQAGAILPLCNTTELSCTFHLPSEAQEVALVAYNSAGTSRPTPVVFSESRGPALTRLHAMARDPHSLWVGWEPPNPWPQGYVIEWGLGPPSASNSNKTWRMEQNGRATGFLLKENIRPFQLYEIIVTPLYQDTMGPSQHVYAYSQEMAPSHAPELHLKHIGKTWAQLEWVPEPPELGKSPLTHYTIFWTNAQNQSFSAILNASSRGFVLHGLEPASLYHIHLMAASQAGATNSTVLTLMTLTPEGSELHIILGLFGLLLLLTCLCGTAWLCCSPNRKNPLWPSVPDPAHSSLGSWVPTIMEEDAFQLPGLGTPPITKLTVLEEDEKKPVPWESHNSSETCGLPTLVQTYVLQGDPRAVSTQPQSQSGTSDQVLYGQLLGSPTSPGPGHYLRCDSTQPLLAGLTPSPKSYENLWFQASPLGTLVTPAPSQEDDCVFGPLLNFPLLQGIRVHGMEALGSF
As to the kind of experiment: SPR, Biacore T200, Fc-fusion G-CSF receptor captured on immobilized Protein A, single kinetic mode, 25 C (Example 19, remeasured). As to the method: (§1) First, commercially available Protein A (Nacalai Tesque, Inc.) was immobilized on a flow cell of a sensor chip CM5 (GE Health care) by using an amine coupling reaction. Next, a running buffer HBS-P (10 mM HEPES pH 7.4, 150 mM NaCl, and 0.05% v/v Surfactant P20) in which an Fc-fusion G-CSF receptor had been dissolved was added to immobilize the receptor on the chip. The SPR measurement was carried out using Biacore T200 (Biacore) and the reaction temperature was 25° C. A 2-fold dilution series from 1.25 nM to 20 nM of the sample solution was prepared, and a single kinetic mode was used for measurement and analysis. When compared with Example 8, this Example had improvements such as use of Biacore T200, which has higher sensitivity than Biacore T100, and use of commercially available Protein A. The improvements helped increase the sensitivity and reproducibility of measurement. Then, the linear G-CSF, G-CSF(C177), and G-CSF(C163) as measured in Example 8 were remeasured and the resulting analysis values were used for comparison.

Test [2] addresses T1, Fc-fusion G-CSF receptor. In words: SPR, Biacore T100, Fc-fusion G-CSF receptor captured on immobilized Protein G, single kinetic mode, 25 C (Example 8). As to the method:
First, Protein G was immobilized on a flow cell of a sensor chip CMS (GE Health care) by using a maleimide coupling reaction. Next, a running buffer HBS-P (10 mM HEPES pH 7.4, 150 mM NaCl, and 0.05% v/v Surfactant P20) in which an Fc-fusion G-CSF receptor had been dissolved was added to immobilize the receptor on the chip. The SPR measurement was carried out using Biacore T100 (Biacore) and the reaction temperature was 25° C. A 2-fold dilution series from 1.25 nM to 20 nM of the sample solution was prepared, and a single kinetic mode was used for measurement and analysis.
(§2) The observation results were analyzed using BIAevaluation version 4.1 to calculate a dissociation constant.

Test [3] concerns the target T1, Fc-fusion G-CSF receptor. As to the kind of experiment: SPR, Biacore T200, Fc-fusion G-CSF receptor captured on immobilized Protein A, single kinetic mode, 25 C (Example 19). On the procedure: as §1, §2

B1: linear control G-CSF (ligand)
chain: MAPLGPASSLPQSFLLKSLEQVRKIQGDGAALQEKLCATYKLCHPEELVLLGHSLGIPWAPLSSCPSQALQLAGCLSQLHSGLFLYQGLLQALEGISPELGPTLDTLQLDVADFATTIWQQMEELGMAPALQPTQGAMPAFASAFQRRAGGVLVASHLQSFLEVSYRVLRHLAQP
notes: Linear polypeptide of 175 amino acids; also called linear G-CSF
Consider B1, for which the Kd with Fc-fusion G-CSF receptor [1] was found to be 0.08 nM; with Fc-fusion G-CSF receptor [2], 0.43 nM.

B2: filgrastim (ligand)
chain: MTPLGPASSLPQSFLLKCLEQVRKIQGDGAALQEKLCATYKLCHPEELVLLGHSLGIPWAPLSSCPSQALQLAGCLSQLHSGLFLYQGLLQALEGISPELGPTLDTLQLDVADFATTIWQQMEELGMAPALQPTQGAMPAFASAFQRRAGGVLVASHLQSFLEVSYRVLRHLAQP
notes: Its source in the assay is not described
As to B2, in the test with Fc-fusion G-CSF receptor [3], binding was characterised by a dissociation constant (Kd) of 0.27 nM.

B3: G-CSF(C170) (ligand)
chain: SGPASSLPQSFLLKSLEQVRKIQGDGAALQEKLCATYKLCHPEELVLLGHSLGIPWAPLSSCPSQALQLAGCLSQLHSGLFLYQGLLQALEGISPELGPTLDTLQLDVADFATTIWQQMEELGMAPALQPTQGAMPAFASAFQRRAGGVLVASHLQSFLEVSYRVLRHLG
modifications: backbone cyclized: amino group of serine at the N-terminus and carbonyl group of glycine at the C-terminus linked by a peptide bond
notes: 170 amino acids; also called cyclized G-CSF(C170)
B3: the Kd with Fc-fusion G-CSF receptor [3] is 0.05 nM. Compared with the last molecule, the Kd is about 5.4-fold lower.

B4: G-CSF(C166) (ligand)
chain: SSLPQSFLLKSLEQVRKIQGDGAALQEKLCATYKLCHPEELVLLGHSLGIPWAPLSSCPSQALQLAGCLSQLHSGLFLYQGLLQALEGISPELGPTLDTLQLDVADFATTIWQQMEELGMAPALQPTQGAMPAFASAFQRRAGGVLVASHLQSFLEVSYRVLRHLG
modifications: backbone cyclized: amino group of serine at the N-terminus and carbonyl group of glycine at the C-terminus linked by a peptide bond
notes: also called cyclized G-CSF(C166)
Turning to B4, the Kd with Fc-fusion G-CSF receptor [3] amounted to 0.06 nM.

B5: G-CSF(C163) (ligand)
chain: SQSFLLKSLEQVRKIQGDGAALQEKLCATYKLCHPEELVLLGHSLGIPWAPLSSCPSQALQLAGCLSQLHSGLFLYQGLLQALEGISPELGPTLDTLQLDVADFATTIWQQMEELGMAPALQPTQGAMPAFASAFQRRAGGVLVASHLQSFLEVSYRVLRHLG
modifications: backbone cyclized: amino group of serine at the N-terminus and carbonyl group of glycine at the C-terminus linked by a peptide bond
notes: also called cyclized G-CSF(C163)
For the molecule B5, the Kd with Fc-fusion G-CSF receptor [1] amounted to 0.1 nM; with Fc-fusion G-CSF receptor [2], 0.57 nM.

B6: G-CSF(C177) (ligand)
chain: SMAPLGPASSLPQSFLLKSLEQVRKIQGDGAALQEKLCATYKLCHPEELVLLGHSLGIPWAPLSSCPSQALQLAGCLSQLHSGLFLYQGLLQALEGISPELGPTLDTLQLDVADFATTIWQQMEELGMAPALQPTQGAMPAFASAFQRRAGGVLVASHLQSFLEVSYRVLRHLAQPG
modifications: backbone cyclized: amino group of serine at the N-terminus and carbonyl group of glycine at the C-terminus linked by a peptide bond
notes: Cyclized with split inteins; also called cyclized G-CSF(C177)
Take B6: the Kd in the test with Fc-fusion G-CSF receptor [1] amounted to 0.06 nM; in the test with Fc-fusion G-CSF receptor [2] it was 0.57 nM.
